{"source": "patent US20200095569A1", "key": {"[1]": {"molecular_target": "NLS-iLID-GFP-ferritin (Gallus gallus; human) (UniProt P02794)", "test": "cell-based or functional assay"}, "[2]": {"molecular_target": "NLS-iLID-iLID-GFP-ferritin (Gallus gallus; human) (UniProt P02794)", "test": "cell-based or functional assay"}}}
{"substance": "FUS(1-214)-mCherry-sspB (from UniProt P0AFZ3 6-116)", "values": [{"measurement": "mean mCherry intensity in locally activated droplets relative to nucleoplasm", "setting": "[1]", "result": 100, "unit": "fold"}, {"measurement": "mCherry fluorescence at core based droplets after light activation (live cell confocal imaging)", "setting": "[2]", "result": 15, "unit": "s"}]}
